Source: the supplement of paper PMC12764529
± gives the half width of the 95% confidence interval.

Assays:
[1] = folding stability dG unfold (combined trypsin and chymotrypsin); higher = more stable
How it was run: (§1)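 Only designs with AlphaFold2 dimer inter-PAE above 15 were retained; each was a mini-protein under 80 residues with no cysteine, in a PA-tagged cDNA display construct. After digestion with trypsin and chymotrypsin and sequencing, K50 was inferred by Bayesian fitting of counts, and unfolding free energy was derived per protease or combined against a sequence-predicted unfolded-state K50 and a shared folded-state K50.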

[2] = folding stability dG unfold from chymotrypsin proteolysis; higher = more stable
How it was run: as §1

[3] = folding stability dG unfold from trypsin proteolysis; higher = more stable
How it was run: as §1

| Sequence | folding stability dG unfold [1] [kcal/mol] | folding stability dG unfold [2] [kcal/mol] | folding stability dG unfold [3] [kcal/mol] |
| --- | --- | --- | --- |
| SAGGSAGGSSGTVTLRLRFRVVDLDPATGEASEHEFELTLTVPIELPAAAPPATPTYGLTLPGSAGGSAGGS [r12_140_TrMRF] | 2.39 ± 0.16 | 2.79 ± 0.074 | 0.895 ± 0.12 |
| SAGGSAGGSSKTFKDPDGWTITVEPLDGGVKVEIYWPDGQRQEHLIPPGEPIKIDPNGWYIEISAGGSAGGS [r12_281_TrROS] | 1.69 ± 0.19 | 2.11 ± 0.061 | 0.5 ± 0.069 |
| SAGGSAGGSSMPIYTVTVTYSDGTVRTYELTPEEIEAFAAEVPDAEVTELPPGKVEVTVKIPASAGGSAGGS [r20_231_JUSTAS] | 2.33 ± 0.07 | 2.49 ± 0.027 | 2.01 ± 0.096 |
| SAGGSAGGSSMTITVTDLVTGEPGEIPEELKAELAAEAEESGSAVTFEITTPDGKKYRAEITPSAGGSAGGS [r12_41_JUSTAS] | 1.1 ± 0.1 | 1.13 ± 0.088 | 0.928 ± 0.029 |
| SAGGSAGGSSPSSVSTYDIEFPDGTKIKITVTLGPGTPVVEITTLTESPPVKRVANTEEVKFESAGGSAGGS [r20_100_JUSTAS] | 0.696 ± 0.19 | 0.995 ± 0.041 | -0.0821 ± 0.059 |
| SAGGSAGGSSPVKQVTEVKDPHSSLPLLRTTETLVLPNGEVVTKVKFIDTKTGKSTEEIFTIPSAGGSAGGS [r20_229_JUSTAS] | 0.833 ± 0.089 | 1.02 ± 0.13 | 0.724 ± 0.046 |
| SAGGSAGGSSPVPVKVSANSVEPGESSSSNINIPKEALEKDSLTPEELKKILQKQGPNVTITGSAGGSAGGS [r20_221_JUSTAS] | -0.0407 ± 0.23 | 0.124 ± 0.049 | -0.423 ± 0.086 |
| SAGGSAGGSSQEREFTLPDPDGKDIKITMHQNPDGRPRAEIENKDGEPVKEFDSPDDIEDLLKSAGGSAGGS [r20_202_TrROS] | -0.0562 ± 0.22 | 0.168 ± 0.06 | -0.273 ± 0.2 |
| SAGGSAGGSSQRIKIEDIEPPPNGQWRVRIKMPNGKEREVTMPPDKLEIELPPNITDVSLWPVSAGGSAGGS [r20_194_TrROS] | 4.01 ± 0.33 | 3.91 ± 0.33 | 3.88 ± 0.16 |
| SAGGSAGGSSSSSVVTKPLPEEPLLVVTTTLPPSTPPGTTSTTTIIEPETGKVLETTDINIPSSAGGSAGGS [r12_564_JUSTAS] | 1.41 ± 0.11 | 0.954 ± 0.1 | 1.92 ± 0.13 |
| SAGGSAGGSSSSTLISVEPSPGIVTVERPLSLDPVPVVERRIMTVSPSSSLSVTETSVFPVSLLSAGGSAGG [r6_970_JUSTAS] | 1.02 ± 0.15 | 0.932 ± 0.24 | 0.818 ± 0.095 |
| SAGGSAGGSSSVTPVPETTLVTLTPPDGSPPVLGTVFPATGTMLLFYPDSVLLLPLGPGTTLFSAGGSAGGS [r12_536_JUSTAS] | 0.82 ± 0.079 | 0.503 ± 0.08 | 0.888 ± 0.034 |
| SAGGSAGGSSVEVTEDPSTGKLTVTVPPDLTSVTIKEKDKTITIPLPPGASITLPSGTVTVALSAGGSAGGS [r20_26_JUSTAS] | 0.935 ± 0.1 | -0.168 ± 0.1 | 1.56 ± 0.059 |
| SAGGSAGGSSVEYTFLSKNPEEAKKKFEEKIKEIEEKGEGKIEKAEFTIVSPDNPEYLKLISSSAGGSAGGS [r12_551_JUSTAS] | 0.259 ± 0.13 | 0.136 ± 0.26 | 0.213 ± 0.05 |
| SAGGSAGGSSVPEGWEVEREKVLEAEIVGEDGPVLRVRLYRVRVRPVDGPPRYFFELDVDDVDSAGGSAGGS [r12_544_TrMRF] | 2.74 ± 0.11 | 2.915 ± 0.027 | 2.38 ± 0.095 |
| SAGGSAGGSSVSVGVPSSYASVEVTVLKEEPGKGLVTVKVTTTVPGTGEVLTETVTIPRSELLSAGGSAGGS [r12_964_JUSTAS] | 0.828 ± 0.046 | 0.517 ± 0.043 | 1.01 ± 0.034 |
| SAGGSAGGSSYLVEVISRKKVKVGGKERYVVPVRIPDNGELVELVVSEDVAKNIKPGDVVVLSSAGGSAGGS [r12_382_TrMRF] | 0.0239 ± 0.12 | -0.00598 ± 0.12 | -0.00477 ± 0.058 |
| SAGGSAGGSTAKEIADKLGFDNVEIKPTKPVEQRKDPNGKWRRQYVYTIKIRNPDGREWTIPISAGGSAGGS [r12_221_TrROS] | 0.528 ± 0.13 | 0.449 ± 0.24 | 0.626 ± 0.093 |

| Sequence | folding stability dG unfold [1] [kcal/mol] | folding stability dG unfold [2] [kcal/mol] | folding stability dG unfold [3] [kcal/mol] |
| --- | --- | --- | --- |
| SAGGSAGGSTLTVEIQITDADGNTLTAKVTLTFEPAPPPPPPPTVERRTTTVDGKTVTEYRRLSAGGSAGGS [r12_128_TrROS_Hall] | 0.969 ± 0.13 | 1.04 ± 0.22 | 0.631 ± 0.18 |
| SAGGSAGGSTVEEELLEKAAAAHPPGTTLTVDVVIVDPNNPVPIGTRTVTITVNADGSYTVVDSAGGSAGGS [r20_151_JUSTAS] | 2.46 ± 0.09 | 2.65 ± 0.054 | 2.18 ± 0.07 |
| SAGGSAGGSTVTIEIPGFKTPEEIAKAIAEKTGKKVKEVKVEKDKKNKTYTITVTVDGKEITFSAGGSAGGS [r12_935_TrROS_Hall] | 0.805 ± 0.15 | 1.03 ± 0.087 | 0.333 ± 0.082 |
| SAGGSAGGSVEDVVKKENVEKAEVKPEPNPPVTLTKITSKNPNSNTTLTGTLVVVDPKNGLLLSAGGSAGGS [r12_133_JUSTAS] | 0.0723 ± 0.11 | 0.157 ± 0.21 | -0.344 ± 0.12 |
| SAGGSAGGSVIPYFDENAVALLVKGPGDYYRIIFKPNDGYLVLLLPKEVIKSKPIPIGELLKKSAGGSAGGS [r20_90_TrMRF] | 0.948 ± 0.43 | 1.33 ± 0.38 | 0.672 ± 0.11 |
| SAGGSAGGSVKVYTIEFLGDGKPYLLSIDDNGNFVIYVPNPKNIDAVKKAIPSNYKIVEIKPLSAGGSAGGS [r12_9_TrMRF] | 1.52 ± 0.17 | 2.01 ± 0.13 | 0.989 ± 0.036 |
| SAGGSAGGSVLPDVLRTLFPDAKVTVKVTEVSETSATVDVEVEVPVPGGSTRRFRLKLEVPLSSAGGSAGGS [r20_78_TrMRF] | 2.14 ± 0.066 | 2.34 ± 0.044 | 1.78 ± 0.029 |
| SAGGSAGGSVVPVKAVFKLPDGDEVEGLALVDNRPDGSLVVLFQLPGTGETVGSATAELLKVEGSAGGSAGG [r6_254_TrMRF] | 0.638 ± 0.11 | 0.727 ± 0.1 | 0.523 ± 0.032 |
| SAGGSAGGSVYSAKSPDGYTITISNGGKPITLPVSDPAKAASLTLKTPDGKTATVTIVPASLASAGGSAGGS [r12_730_JUSTAS] | -0.216 ± 0.17 | -0.295 ± 0.23 | -0.229 ± 0.12 |
| SAGGSAGGSWEWITAEEALKRAREENPPGKPIEFHFEDPWYFTVRFDGEDPNDVTIEWVPLEKSAGGSAGGS [r12_648_TrROS] | 1.4 ± 0.2 | 1.47 ± 0.18 | 1.39 ± 0.087 |
| SAGGSAGGSWIPLPDGYLIKITEVVPGGIRIKFPDMGNEITIPPGMPIKIKIIPVKDPDGEPISAGGSAGGS [r20_105_TrROS] | 0.9 ± 0.14 | 0.838 ± 0.05 | 1.03 ± 0.056 |
| SAGGSAGGSWMYKKNPDGKLEPLPPIRPVPIKIPVPINGRWIPVPIWMTVADIDYIIKEFLKNSAGGSAGGS [r20_148_TrROS] | 1.41 ± 0.15 | 0.785 ± 0.15 | 1.48 ± 0.042 |
| SAGGSAGGSWRTITYEFKLPKPGQTAEDIAKEIMQLFPGVKDIEIKYYPEEGYIKVDIRFRPNSAGGSAGGS [r20_31_TrROS] | 3.13 ± 0.22 | 2.88 ± 0.042 | 3.37 ± 0.2 |
| SAGGSAGGSYWFSITFKINFWVIDGNRIHPVPIEITILIKIPPIPPDEMKPEPTPDGEPKYDFSAGGSAGGS [r12_1031_TrROS] | 4.29 ± 0.23 | 4.64 ± 0.2 | 2.73 ± 0.15 |
| SAGGSAGGSYYMIEIEFPDTGQRITFPFKSLEEAKEFLPPGAPIREIEVQPIKPPVDPEQQNESAGGSAGGS [r12_851_TrROS] | 1.24 ± 0.11 | 1.31 ± 0.12 | 0.809 ± 0.054 |
| SAGGSAGGTATLVLPAAAFPSRPDGSLGLEEIRDVARPIAQEAFGTDDITLDVESHPDGFVTITFSSAGGSA [r15_562_TrMRF] | 0.519 ± 0.072 | 0.197 ± 0.17 | 0.642 ± 0.027 |
| SAGGSAGGTISFPNATATITVEENSVTITVTNADGQPTTFTIPLPIPKAKPFTLPDGTKLYLIASAGGSAGG [r6_806_TrMRF] | 2.31 ± 0.21 | 2.31 ± 0.16 | 1.94 ± 0.083 |
| SAGGSAGGTSVADELEEEFKAKGYPAEVTVTKLPDDTTLVTVTVTDPKTGKSTTTTVTVSPAEASAGGSAGG [r6_692_JUSTAS] | 0.861 ± 0.16 | 1.01 ± 0.12 | 1.02 ± 0.076 |
